According to article PMC8309162, “Identification and Functional Characterization of Genes Encoding Phenylacetaldehyde Reductases That Catalyze the Last Step in the Biosynthesis of Hydroxytyrosol in Olive” (Plants, 2021):

Test system: T1, O=CCc1ccc(O)c(O)c1
T1 construct: tag cleavage not mentioned
Assay: HPLC quantification of hydroxytyrosol formed
Type: biochemical, Olea europaea
Conditions: 0.25-8 mM substrate, Michaelis-Menten, standard assay 5 mM NADPH, 50 mM Tris-HCl pH 8.0, 30 °C (pH of the kinetic run not stated; optimum pH 6.5)

Sequence of OePAR1.2 (Olea europaea) (chain, as listed by the source): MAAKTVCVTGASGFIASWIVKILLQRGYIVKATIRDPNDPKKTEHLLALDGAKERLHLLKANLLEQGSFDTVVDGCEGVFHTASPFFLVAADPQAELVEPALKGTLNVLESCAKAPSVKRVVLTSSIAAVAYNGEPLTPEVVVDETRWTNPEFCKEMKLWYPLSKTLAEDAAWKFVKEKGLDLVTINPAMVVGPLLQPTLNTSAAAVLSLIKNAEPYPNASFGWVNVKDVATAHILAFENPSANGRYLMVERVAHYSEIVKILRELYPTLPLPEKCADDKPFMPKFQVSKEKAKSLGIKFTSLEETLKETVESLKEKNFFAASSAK
Sequence of OePAR1.1 (Olea europaea) (chain, as listed by the source): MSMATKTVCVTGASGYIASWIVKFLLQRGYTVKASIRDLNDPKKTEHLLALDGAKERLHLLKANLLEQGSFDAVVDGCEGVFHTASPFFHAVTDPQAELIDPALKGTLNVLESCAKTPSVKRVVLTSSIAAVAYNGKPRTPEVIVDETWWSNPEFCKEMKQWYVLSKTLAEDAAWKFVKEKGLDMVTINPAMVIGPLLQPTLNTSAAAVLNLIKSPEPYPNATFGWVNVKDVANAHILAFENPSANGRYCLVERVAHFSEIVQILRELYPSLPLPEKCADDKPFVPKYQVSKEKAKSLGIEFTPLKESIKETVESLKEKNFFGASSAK

Substance	Km
OePAR1.1 (Olea europaea)	600 µM
OePAR1.2 (Olea europaea)	800 µM
